According to patent US20250163164A1 (LANOVA MEDICINES DEVELOPMENT, published 2025):
Where a chain is given by its changes, count along the chain named. Several values for one entry are separate records, joined by “and”; a condition that tells them apart may be missing. Identical values can stand only once.

T1: human interleukin 13 receptor subunit alpha 2 (IL-13RA2) (human, UniProt Q14627 27-380)
T1 construct: whole, on cells; also called IL-13Rα2; CD213A2
T1 sequence (looked up): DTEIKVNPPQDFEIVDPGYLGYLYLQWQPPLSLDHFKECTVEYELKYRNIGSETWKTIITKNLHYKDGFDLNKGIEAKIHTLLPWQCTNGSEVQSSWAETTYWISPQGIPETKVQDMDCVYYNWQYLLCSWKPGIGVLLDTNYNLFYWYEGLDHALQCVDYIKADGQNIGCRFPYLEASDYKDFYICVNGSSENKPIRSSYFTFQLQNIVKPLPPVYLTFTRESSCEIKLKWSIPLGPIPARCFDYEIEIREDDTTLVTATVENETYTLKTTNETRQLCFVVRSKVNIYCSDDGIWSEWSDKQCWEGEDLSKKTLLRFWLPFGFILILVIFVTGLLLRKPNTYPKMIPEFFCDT

B1: xi61H8C1 hIgG1 (antibody, V domains shown)
VH: QVQLQQSGAELARPGASVMLSCKASGYTFTSYWTQWIKQRPGQGLEGIGAIYPGDDDTSYNQKFKGKATLTADKSSSTAYMQLNSLTSEDSAVYYCARGATLLRPFPYWGQGTLVTVSA
VL: DIVMTQSHKFMSTSVGDRVSITCKASQDVSTAVAWYQQKPGQSPKLLIYSASYRYTGVPDRFTGSGSGTDFTFTISSVQAEDLAVYSCQQHYSIPPTFGGGTKLEIK
B2: xi57F8H3F1 hIgG1 (antibody, V domains shown)
VH: QVQLQQPGAELVRPGASVKLSCKASGYTFTNYWMNWIKQRPEQGLEWIGRIDPYETETHYNQKFRDRAILTVDKSSSTAFMQLSGLTSEDSAVYYCARGYGHYYGVDYWGQGTSVTVSS
VL: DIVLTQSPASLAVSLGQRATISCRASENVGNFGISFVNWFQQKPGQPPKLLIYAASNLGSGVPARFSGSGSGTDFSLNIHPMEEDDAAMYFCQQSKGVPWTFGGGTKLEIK
B3: xi73A11E2 hIgG1 (antibody, V domains shown)
VH: EVKLVESGGGLVKPGGSLKLSCAASGFTFSSYGMSWVRQTPEKRLEWVATISGGGSYTYYPDSVKGRFTISRDNARNNLYLQMNSLRSEDTALYYCARRDLRSAMDYWGQGTSVTVSS
VL: DIVMTQSQKFMSTSVGDRVSVTCKASQNVDINVAWYQQKPGQSPKALIYSASYRYSGVPDRFTGSGSGTDFTLTISNVQSEDLAEFFCQQYNSYPLTFGGGTKLEIK
B4: 24G6D5 (antibody, V domains shown)
VH: QVQLQQSGPELVKPGTSVKMSCKASGYTFTSNYIHWVKQRPGQGLEWIGWIYPGDGSIKYNEKFKGKTTLTADKSSSTVYMLLSSLTSEDSAIYFCAVLRRLDYWGQGTTLTVSS
VL: DIVLTQSPATLSVTPGDSVSLSCRASQSISNNLHWYQQKSHESPRLLIKYASQSISGIPSRFSGSGSGTDFTLSINSVETEDFGMYFCQQSNSWPLTFGAGTKLELK
notes: purified mouse antibody
B5: xi51G2B3 hIgG1 (antibody, V domains shown)
VH: QVQLQQSGPELVKPGASVKISCKASGYAFSDSWMNWVKQRPGQGLEWIGRIYPGDGDTNYNGKFKGKATLTADKSSNTAYMQLSSLTSVDSAVYFCARSWNGSPWFPYWGQGTLVTVSA
VL: DVLMTQTPLSLPVSLGDQASISCRSSQTIAHRNGNTYLEWYLQKPGQSPKLLLYKVSNRFSGVPDRFSGSGSGTDFTLKISRVEAEDLGVYYCFQGSHVTWTFGGGTKLEIK
B6: xi62F6A8 hIgG1 (antibody, V domains shown)
VH: B1 VH with L4I, S31D, T34M, D56G, S59A, K65R, T87A, Y95F, Y108F
VL: B1 VL with T56A
B7: xi34A5G9 hIgG1 (antibody, V domains shown)
VH: EVHLQQSGPELVKPGASVKISCKTSGYTFTEYTMHWVKQSHGKSLEWIGRINPNNGIAEYKQTFKDKATLAVDKSSSTAYMEFRSLTSEDSAVYYCARGEGYGYWFAYWGQGTLVTVSA
VL: DIQMTQSPASLSASVGETVTITCRTSDNIYSYLAWYQQRQGKSPQLLVSNARTLAEGVPSRFSGSGSGTQFSLKINSLQPEDFGIYYCQHHSGTPFTFGSGTNLEIE
B8: xi54A4F7 hIgG1 (antibody, V domains shown)
VH: B3 VH with R76K, N84S, Y107H
VL: B3 VL with K24R, A46S, F86Y, K107R
B9: xi62A8D8 hIgG1 (antibody, V domains shown)
VH: B3 VH with R76K, N84S
VL: B3 VL with S93N
B10: xi74B5E4 hIgG1 (antibody, V domains shown)
VH: B3 VH with K19R, S31T, R76K, N84S
VL: B3 VL with F86Y, S93T
B11: xi24G6D5 hIgG1 (antibody, V domains shown)
VH: B4 VH
VL: B4 VL

These binders were tested against T1, human interleukin 13 receptor subunit … (assay: FACS on A375 cells).
Experimental: A375 cells that endogenously expressed IL-13RA2, were harvested from flasks. 100 μl of 1×10⁶ cells/ml of cells were incubated with primary humanized antibodies in 4-fold serial dilutions starting from 200 nM to 0.003 nM for 30 minutes on ice. After being washed with 200 μl of FACS buffer twice, cells were incubated with secondary antibody for 30 minutes on ice. Cells were washed with 200 μl of FACS buffer twice and analyzed by FACS.

Work on B1 yielded an EC50 of 0.16 nM.

B2 was tested, and the EC50 was 0.33 nM and 0.41 nM.
B3 was tested, and the EC50 was 0.26 nM and 0.359 nM and 0.45 nM.

Target: T1, human interleukin 13 receptor subunit …
Experiment: FACS on A375 cells
Remark: another data set of the same source
Experimental: A375 cells that endogenously expressed IL-13RA2 were harvested from flasks. 100 μl of 1×10⁶ cells/ml of cells were incubated with primary antibodies in 4-fold serial dilutions starting from 100 nM to 0.006 nM for 30 minutes on ice. After being washed with 200 μl of FACS buffer twice, cells were incubated with secondary antibody for 30 minutes on ice. Cells were washed with 200 μl of FACS buffer twice and analyzed by FACS.

With B4 the EC50 was 0.68 nM.

With B4 the “Top (MFI)” value was 226000 MFI.

The binders below were run against T1, human interleukin 13 receptor subunit … (assay: cell-based or functional assay).

In order of falling “internalization EC50 (pHAb dye), A375 cells” value:
1. B7  3.63 nM
2. B5  1.32 nM
3. B9  1 nM
4. B3  0.77 nM
5. B2  0.74 nM
6. B8  0.66 nM
7. B11  0.61 nM
8. B6  ~0.447 nM
9. B1  ~0.441 nM
10. B10  ~0.437 nM

In order of falling “internalization EC50 (pHAb dye), CHO-K1/H_IL-13RA2 cells” value:
1. B2  2.37 nM
2. B5  1.84 nM
3. B9  1.58 nM
4. B3  1.52 nM
5. B8  1.42 nM
6. B7  1.38 nM
7. B6  1.17 nM
8. B1  1.02 nM
9. B10  0.91 nM
10. B11  0.86 nM

In order of rising “internalization EC50 (pHAb dye), HEK-293/H IL-13RA2 cells” value:
1. B10  1.31 nM
2. B1  1.49 nM
3. B8  1.65 nM
4. B6  1.73 nM
5. B7  1.78 nM
6. B9  1.88 nM
7. B3  1.98 nM
8. B2  2.42 nM
9. B11  2.76 nM
10. B5  3.84 nM

In order of falling “internalization Top (MFI), A375 cells” value:
1. B7  8610 MFI
2. B5  6380 MFI
3. B9  5550 MFI
4. B8  5500 MFI
5. B10  5170 MFI
6. B6  4530 MFI
7. B3  4310 MFI
8. B11  4110 MFI
9. B1  3820 MFI
10. B2  2720 MFI

In order of rising “internalization Top (MFI), CHO-K1/H_IL-13RA2 cells” value:
1. B11  12700 MFI
2. B7  13900 MFI
3. B6  15900 MFI
4. B1  16900 MFI
5. B5  17100 MFI
6. B9  17200 MFI
7. B10  17700 MFI
8. B3  17900 MFI
9. B8  18000 MFI
10. B2  19200 MFI

In order of rising “internalization Top (MFI), HEK-293/H IL-13RA2 cells” value:
1. B10  21600 MFI
2. B6  22300 MFI
3. B8  22800 MFI
4. B9  23300 MFI
5. B3  23500 MFI
6. B11  23700 MFI
7. B1  24700 MFI
8. B7  25700 MFI
9. B2  26000 MFI
10. B5  28900 MFI

Target: T1, human interleukin 13 receptor subunit …
Experiment: FACS on A375 cells
Remark: another data set of the same source
Experimental: A375 cells that endogenously expressed IL-13RA2, were harvested from flasks. 100 μl of 1×10⁶ cells/ml of cells were incubated with primary chimeric antibodies in 3-fold serial dilutions starting from 300 nM to 0.002 nM for 30 minutes on ice. After being washed with 200 μl of FACS buffer twice, cells were incubated with secondary antibody for 30 minutes on ice. Cells were washed with 200 μl of FACS buffer twice and analyzed by FACS.
As shown in FIG. 3 and Table 4, the chimeric antibodies bound to human IL-13RA2 at different EC50.

In order of falling EC50:
1. B2  0.99 nM
2. B11  0.88 nM
3. B9  0.82 nM
4. B10  0.7 nM
5. B3  0.65 nM
6. B5  0.64 nM
7. B8  0.63 nM
8. B6  0.48 nM
9. B1  0.47 nM
10. B7  0.26 nM

In order of rising “Top (MFI)” value:
1. B11  15200 MFI
2. B5  15500 MFI
3. B1  15600 MFI
4. B6  15800 MFI
5. B7  16700 MFI
6. B9  17300 MFI
7. B2  17600 MFI
8. B8  18000 MFI
9. B3  18000 MFI
10. B10  18100 MFI
